Numbering of substitutions follows the chain as printed. Numbers in names are those of the source.
Target: T1, EsCas13d, nuclease-dead (Eubacterium siraeum, UniProt B0MS50, R295A;H300A;R849A;H854A)
T1 sequence: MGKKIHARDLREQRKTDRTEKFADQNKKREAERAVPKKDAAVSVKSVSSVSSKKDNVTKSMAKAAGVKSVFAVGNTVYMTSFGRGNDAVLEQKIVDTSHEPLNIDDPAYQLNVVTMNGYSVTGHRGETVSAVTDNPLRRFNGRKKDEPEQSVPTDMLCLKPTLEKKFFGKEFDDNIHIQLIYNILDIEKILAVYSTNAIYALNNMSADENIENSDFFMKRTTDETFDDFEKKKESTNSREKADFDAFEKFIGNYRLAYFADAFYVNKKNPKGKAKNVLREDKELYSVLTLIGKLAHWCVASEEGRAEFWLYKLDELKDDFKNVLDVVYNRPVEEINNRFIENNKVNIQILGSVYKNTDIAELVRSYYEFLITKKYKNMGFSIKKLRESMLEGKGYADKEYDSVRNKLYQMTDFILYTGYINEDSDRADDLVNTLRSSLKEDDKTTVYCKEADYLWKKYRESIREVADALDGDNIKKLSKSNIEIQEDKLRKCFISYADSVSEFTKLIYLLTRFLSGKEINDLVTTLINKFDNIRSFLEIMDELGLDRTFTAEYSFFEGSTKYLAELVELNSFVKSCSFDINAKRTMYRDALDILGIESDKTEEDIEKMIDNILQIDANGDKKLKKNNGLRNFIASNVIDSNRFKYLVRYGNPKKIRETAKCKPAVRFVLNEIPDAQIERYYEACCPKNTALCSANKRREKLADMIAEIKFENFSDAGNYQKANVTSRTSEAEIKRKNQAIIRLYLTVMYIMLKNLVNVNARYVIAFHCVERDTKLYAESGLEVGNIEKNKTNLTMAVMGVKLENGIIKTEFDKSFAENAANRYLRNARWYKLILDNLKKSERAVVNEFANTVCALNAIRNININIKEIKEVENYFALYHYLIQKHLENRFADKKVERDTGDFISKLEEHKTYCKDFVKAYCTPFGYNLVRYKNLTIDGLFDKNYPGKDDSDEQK
Assay: crRNA (strand 1, pre-loaded); Mg2+; 40 mM Tris-HCl pH 7.5, 150 mM NaCl, 6 mM MgCl2, 1 mM DTT, 0.1% Tween-20, 0.2 mg/ml BSA; 25 C; 10 min per concentration, then washed
Conditions: tags: His6-TwinStrep-SUMO cleaved; N-terminal SNAP kept (SNAP-Surface 488); label: 3' end held by stalled T7 RNA polymerase

B1: target 1 A1U,C7G (mixed)
RNA 1: CACCCGUGCAAAAAUGCAGGGGUCUAAAACUGAGCGGAUAACCUCUCUAUGG
RNA 2: GGGAAUGGAUCCACAUCUACGAAUUCGUACCAUAGAGAGGUUAUGCGCUCUCCGAGAUCGGAAGAGCACACGU
In the case of B1, the Kd is reported as 9.9 ± 0.8 nM.

B2: target 1 insA 3' of 4,insG 3' of 4 (mixed)
RNA 1: B1 RNA 1
RNA 2: GGGAAUGGAUCCACAUCUACGAAUUCGUACCAUAGAGAGGUUAUCCGCAGUCACCGAGAUCGGAAGAGCACACGU
B2 was tested, and the Kd was 5.32 ± 0.26 nM.

B3: target 1 insA 3' of 21,insC 3' of 11 (mixed)
RNA 1: B1 RNA 1
RNA 2: GGGAAUGGAUCCACAUCUACGAAUUCGUACCAAUAGAGAGGUCUAUCCGCUCACCGAGAUCGGAAGAGCACACGU
B3 was tested, and the Kd was roughly 80 nM.

B4: target 1 C6G,A18U (mixed)
RNA 1: B1 RNA 1
RNA 2: B1 RNA 2 with A34U, G45C, C46G, U51A
Binder B4 has a Kd of 29 ± 4 nM.

B5: target 2 MT 5'PFS AAG 3'PFS ACG (mixed)
RNA 1: CACCCGUGCAAAAUUGCAGGGGUCUAAAACCUUCUCCAAAUUGUUUCAUCCU
RNA 2: GGGAAUGGAUCCACAUCUACGAAUUCAAGAGGAUGAAACAAUUUGGAGAAGACGAGAUCGGAAGAGCACACGU
For B5, the Kd was 5.1 ± 0.9 nM.

B6: target 2 MT 5'PFS UAU 3'PFS CGA (mixed)
RNA 1: B5 RNA 1
RNA 2: B5 RNA 2 with A27U, G29U, A52C, C53G, G54A
Work on B6 yielded a Kd of 27 ± 1.9 nM.

B7: target 2 MT 5'PFS CUU 3'PFS UGA (mixed)
RNA 1: B5 RNA 1
RNA 2: B5 RNA 2 with A27C, A28U, G29U, A52U, C53G, G54A
Work on B7 yielded a Kd of 6.5 ± 2 nM.

B8: target 2 MT 5'PFS GCC 3'PFS UUA (mixed)
RNA 1: B5 RNA 1
RNA 2: B5 RNA 2 with A27G, A28C, G29C, A52U, C53U, G54A
B8 showed a Kd of 25 ± 7 nM.

B9: target 2 MT 5'PFS UAU 3'PFS AGC (mixed)
RNA 1: B5 RNA 1
RNA 2: B5 RNA 2 with A27U, G29U, C53G, G54C
B9 was tested, and the Kd was 21 ± 2.4 nM.

B10: target 2 MT 5'PFS ACU 3'PFS CAC (mixed)
RNA 1: B5 RNA 1
RNA 2: B5 RNA 2 with A28C, G29U, A52C, C53A, G54C
In the case of B10, the Kd is reported as 4.1 ± 0.6 nM.

B11: target 2 MT 5'PFS CUU 3'PFS UGC (mixed)
RNA 1: B5 RNA 1
RNA 2: B5 RNA 2 with A27C, A28U, G29U, A52U, C53G, G54C
Work on B11 yielded a Kd of 4.5 ± 0.9 nM.

B12: target 2 MT 5'PFS GCA 3'PFS UGU (mixed)
RNA 1: B5 RNA 1
RNA 2: B5 RNA 2 with A27G, A28C, G29A, A52U, C53G, G54U
For B12, the Kd was 25 ± 5 nM.

B13: target 2 MT 5'PFS GCC 3'PFS UUC (mixed)
RNA 1: B5 RNA 1
RNA 2: B5 RNA 2 with A27G, A28C, G29C, A52U, C53U, G54C
For B13, the Kd was 27 ± 7 nM.

B14: target 2 MT 5'PFS UAU 3'PFS AGG (mixed)
RNA 1: B5 RNA 1
RNA 2: B5 RNA 2 with A27U, G29U, C53G
B14 gave a Kd of 28.1 ± 3.3 nM.

B15: target 2 MT 5'PFS UAA 3'PFS ACU (mixed)
RNA 1: B5 RNA 1
RNA 2: B5 RNA 2 with A27U, G29A, G54U
B15 was tested, and the Kd was 9 ± 1.4 nM.

B16: target 2 MT 5'PFS GUG 3'PFS CAU (mixed)
RNA 1: B5 RNA 1
RNA 2: B5 RNA 2 with A27G, A28U, A52C, C53A, G54U
Work on B16 yielded a Kd of 9.2 ± 0.8 nM.

B17: target 2 MT 5'PFS CUU 3'PFS UGU (mixed)
RNA 1: B5 RNA 1
RNA 2: B5 RNA 2 with A27C, A28U, G29U, A52U, C53G, G54U
With B17 the Kd was 4.26 ± 0.3 nM.

B18: target 2 MT 5'PFS UAA 3'PFS ACG (mixed)
RNA 1: B5 RNA 1
RNA 2: B5 RNA 2 with A27U, G29A
B18 showed a Kd of 8.8 ± 2.1 nM.

B19: target 2 MT 5'PFS UAU 3'PFS CGG (mixed)
RNA 1: B5 RNA 1
RNA 2: B5 RNA 2 with A27U, G29U, A52C, C53G
Work on B19 yielded a Kd of 52 ± 11 nM.

B20: target 2 MT 5'PFS ACU 3'PFS CAU (mixed)
RNA 1: B5 RNA 1
RNA 2: B5 RNA 2 with A28C, G29U, A52C, C53A, G54U
Binder B20 has a Kd of 3.1 ± 0.5 nM.

B21: target 2 MT 5'PFS UAU 3'PFS CGU (mixed)
RNA 1: B5 RNA 1
RNA 2: B5 RNA 2 with A27U, G29U, A52C, C53G, G54U
B21 showed a Kd of 15.6 ± 1.8 nM.

B22: target 2 MT 5'PFS AUU 3'PFS UAA (mixed)
RNA 1: B5 RNA 1
RNA 2: B5 RNA 2 with A28U, G29U, A52U, C53A, G54A
With B22 the Kd was 5.4 ± 0.8 nM.

B23: target 2 MT 5'PFS ACG 3'PFS CGC (mixed)
RNA 1: B5 RNA 1
RNA 2: B5 RNA 2 with A28C, A52C, C53G, G54C
Binder B23 has a Kd of 8.2 ± 1.1 nM.

B24: target 2 MT 5'PFS GCC 3'PFS UUG (mixed)
RNA 1: B5 RNA 1
RNA 2: B5 RNA 2 with A27G, A28C, G29C, A52U, C53U
B24 showed a Kd of 15.3 ± 2.1 nM.

B25: target 2 MT 5'PFS GCA 3'PFS CAA (mixed)
RNA 1: B5 RNA 1
RNA 2: B5 RNA 2 with A27G, A28C, G29A, A52C, C53A, G54A
B25 was tested, and the Kd was 7.7 ± 1.1 nM.

B26: target 2 MT 5'PFS ACG 3'PFS CGA (mixed)
RNA 1: B5 RNA 1
RNA 2: B5 RNA 2 with A28C, A52C, C53G, G54A
In the case of B26, the Kd is reported as 8.5 ± 2.1 nM.

B27: target 2 MT 5'PFS CAC 3'PFS ACU (mixed)
RNA 1: B5 RNA 1
RNA 2: B5 RNA 2 with A27C, G29C, G54U
In the case of B27, the Kd is reported as 2.7 ± 1.1 nM.

B28: target 2 MT 5'PFS GCA 3'PFS UGC (mixed)
RNA 1: B5 RNA 1
RNA 2: B5 RNA 2 with A27G, A28C, G29A, A52U, C53G, G54C
In the case of B28, the Kd is reported as 12.7 ± 2.3 nM.

B29: target 2 MT 5'PFS GAC 3'PFS CUU (mixed)
RNA 1: B5 RNA 1
RNA 2: B5 RNA 2 with A27G, G29C, A52C, C53U, G54U
With B29 the Kd was 12.5 ± 1.3 nM.

B30: target 2 MT 5'PFS GCC 3'PFS UUU (mixed)
RNA 1: B5 RNA 1
RNA 2: B5 RNA 2 with A27G, A28C, G29C, A52U, C53U, G54U
With B30 the Kd was 41 ± 11 nM.

B31: target 2 MT 5'PFS ACU 3'PFS CAA (mixed)
RNA 1: B5 RNA 1
RNA 2: B5 RNA 2 with A28C, G29U, A52C, C53A, G54A
B31 was tested, and the Kd was 3.7 ± 0.8 nM.

B32: target 2 MT 5'PFS GCA 3'PFS UGA (mixed)
RNA 1: B5 RNA 1
RNA 2: B5 RNA 2 with A27G, A28C, G29A, A52U, C53G, G54A
Work on B32 yielded a Kd of 13 ± 4 nM.

B33: target 2 MT 5'PFS ACU 3'PFS CAG (mixed)
RNA 1: B5 RNA 1
RNA 2: B5 RNA 2 with A28C, G29U, A52C, C53A
With B33 the Kd was 4.5 ± 0.5 nM.

B34: target 2 MT 5'PFS UAA 3'PFS ACA (mixed)
RNA 1: B5 RNA 1
RNA 2: B5 RNA 2 with A27U, G29A, G54A
B34 gave a Kd of 6 ± 1.2 nM.

B35: target 2 MT 5'PFS UAU 3'PFS AGA (mixed)
RNA 1: B5 RNA 1
RNA 2: B5 RNA 2 with A27U, G29U, C53G, G54A
In the case of B35, the Kd is reported as 21.1 ± 2.7 nM.

B36: target 2 MT 5'PFS UAA 3'PFS ACC (mixed)
RNA 1: B5 RNA 1
RNA 2: B5 RNA 2 with A27U, G29A, G54C
B36 was tested, and the Kd was 24 ± 9 nM.

B37: target 2 MT 5'PFS UAU 3'PFS AGU (mixed)
RNA 1: B5 RNA 1
RNA 2: B5 RNA 2 with A27U, G29U, C53G, G54U
B37 showed a Kd of 15.2 ± 1.6 nM.

B38: target 2 MT 5'PFS UAU 3'PFS CGC (mixed)
RNA 1: B5 RNA 1
RNA 2: B5 RNA 2 with A27U, G29U, A52C, C53G, G54C
B38 was tested, and the Kd was 75 ± 13 nM.

— paper PMC10786891, “Massively parallel profiling of RNA-targeting CRISPR-Cas13d”
